The record followed here is publication doi:10.1101/2021.11.20.466133.

This data set addresses T1, MsDisA (Mycobacterium smegmatis mc2155, UniProt A0R564 1-372).
T1 sequence: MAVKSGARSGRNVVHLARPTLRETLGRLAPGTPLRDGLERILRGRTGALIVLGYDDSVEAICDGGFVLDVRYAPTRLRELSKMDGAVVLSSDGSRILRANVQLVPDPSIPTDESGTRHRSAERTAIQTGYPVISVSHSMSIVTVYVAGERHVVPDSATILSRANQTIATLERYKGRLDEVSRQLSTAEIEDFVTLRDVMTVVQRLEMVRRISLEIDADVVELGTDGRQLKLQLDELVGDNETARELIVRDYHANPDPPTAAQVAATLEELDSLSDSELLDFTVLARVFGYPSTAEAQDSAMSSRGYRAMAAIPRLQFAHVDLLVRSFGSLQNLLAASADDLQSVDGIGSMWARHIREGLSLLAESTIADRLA
Nature of the data set: EMSA. For orientation: A gel shift assay detects complexes by their altered migration in electrophoresis.

B1: dsDNA 50mer (dsDNA)
DNA 1: GGATACGTAACAACGCTTATGCATCGCCGCCGCTACATCCCTGAGCTGAC
DNA 2: GTCAGCTCAGGGATGTAGCGGCGGCGATGCATAAGCGTTGTTACGTATCC
Regarding B1, the binding result is “no binding”.

B2: HLDNA (synthetic Holliday junction) (structured_DNA)
DNA 1: ATCGATAGTCTCTAGACAGCATGTCCTAGCAAGCCAGAATTCGGCAGCGT
DNA 2: GACGCTGCCGAATTCTGGCTTGCTAGGACATTCTTTGCCCACGTTGACCC
DNA 3: GGGTCAACGTGGCAAAGAATGTCCTACGTCCGATACGGATAATCGCCAT
DNA 4: ATGGCGATTATCCGTATCGGACGTCGGACATGCTGTCTAGAGACTATCGA
On to B2, for which the binding result is recorded as “no binding”.
